± gives the uncertainty stated by the source.
B1: DNA topoisomerase 3-alpha, residues 812 to 851; numbered along this chain, Q13472 (parent)
chain: TCNCGQEAVLLTVRKEGPNRGRQFFKCNGGSCNFFLWADS

Variants of: B1
Test: abundance fitness (aPCA) (normalised: wild type 0, dead -1); higher = more abundant; growth selection in yeast, the domain comes from the species named
Conditions: Homo sapiens

First: TCNCGQEAVLLTVMKEGPNRGRQFFKCNGGSCNFFLWADS [R14M]
Second: TCNCGQEAVLLTVLKEGPNRGRQFFKCNGGSCNFFLWADS [R14L]
The abundance fitness of the first is higher: 0.06 ± 0.057 for the first, -0.099 ± 0.068 for the second.

TCNCGQEAVLLTVEKEGPNRGRQFFKCNGGSCNFFLWADS [R14E] and TCNCGQEAVLLTVGKEGPNRGRQFFKCNGGSCNFFLWADS [R14G] are within error of each other in abundance fitness: 0.001 ± 0.054 for the first, -0.092 ± 0.043 for the second.

Compared with TCNCGQEAVLLTVYKEGPNRGRQFFKCNGGSCNFFLWADS [R14Y], TCNCGQEAVLLTVPKEGPNRGRQFFKCNGGSCNFFLWADS [R14P] is lower in abundance fitness: -0.052 ± 0.11 for the first, -0.312 ± 0.065 for the second.

TCNCGQEAVLLTVKKEGPNRGRQFFKCNGGSCNFFLWADS [R14K] and TCNCGQEAVLLTVTKEGPNRGRQFFKCNGGSCNFFLWADS [R14T] are within error of each other in abundance fitness: 0.089 ± 0.11 for the first, -0.052 ± 0.17 for the second.

TCNCGQEAVLLTVQKEGPNRGRQFFKCNGGSCNFFLWADS [R14Q] and TCNCGQEAVLLTVVKEGPNRGRQFFKCNGGSCNFFLWADS [R14V] are within error of each other in abundance fitness: 0.001 ± 0.095 for the first, -0.037 ± 0.048 for the second.

TCNCGQEAVLLTVAKEGPNRGRQFFKCNGGSCNFFLWADS [R14A] and TCNCGQEAVLLTVSKEGPNRGRQFFKCNGGSCNFFLWADS [R14S] are within error of each other in abundance fitness: -0.006 ± 0.047 for the first, -0.094 ± 0.084 for the second.

TCNCGQEAVLLTVCKEGPNRGRQFFKCNGGSCNFFLWADS [R14C] and TCNCGQEAVLLTVNKEGPNRGRQFFKCNGGSCNFFLWADS [R14N] are within error of each other in abundance fitness: -0.15 ± 0.09 for the first, -0.166 ± 0.34 for the second.

Compared with TCNCGQEAVLLTVWKEGPNRGRQFFKCNGGSCNFFLWADS [R14W], TCNCGQEAVLLTVRKEPPNRGRQFFKCNGGSCNFFLWADS [G17P] is lower in abundance fitness: -0.075 ± 0.06 for the first, -0.89 ± 0.46 for the second.

TCNCGQEAVLLTVRKELPNRGRQFFKCNGGSCNFFLWADS [G17L] and TCNCGQEAVLLTVRKEWPNRGRQFFKCNGGSCNFFLWADS [G17W] are within error of each other in abundance fitness: -0.606 ± 0.071 for the first, -0.684 ± 0.26 for the second.

Compared with TCNCGQEAVLLTVRKEIPNRGRQFFKCNGGSCNFFLWADS [G17I], TCNCGQEAVLLTVRKEQPNRGRQFFKCNGGSCNFFLWADS [G17Q] is lower in abundance fitness: -0.263 ± 0.16 for the first, -0.681 ± 0.11 for the second.

TCNCGQEAVLLTVRKEVPNRGRQFFKCNGGSCNFFLWADS [G17V] and TCNCGQEAVLLTVRKERPNRGRQFFKCNGGSCNFFLWADS [G17R] are within error of each other in abundance fitness: -0.675 ± 0.14 for the first, -0.665 ± 0.14 for the second.

Going from TCNCGQEAVLLTVRKEAPNRGRQFFKCNGGSCNFFLWADS [G17A] to TCNCGQEAVLLTVRKPGPNRGRQFFKCNGGSCNFFLWADS [E16P], the abundance fitness rises from -0.676 ± 0.17 to -0.196 ± 0.15.

First: TCNCGQEAVLLTVRKKGPNRGRQFFKCNGGSCNFFLWADS [E16K]
Second: TCNCGQEAVLLTVRKCGPNRGRQFFKCNGGSCNFFLWADS [E16C]
The abundance fitness of the first is higher: -0.071 ± 0.1 for the first, -0.342 ± 0.087 for the second.

Compared with TCNCGQEAVLLTVRKNGPNRGRQFFKCNGGSCNFFLWADS [E16N], TCNCGQEAVLLTVRKLGPNRGRQFFKCNGGSCNFFLWADS [E16L] is lower in abundance fitness: -0.018 ± 0.054 for the first, -0.246 ± 0.058 for the second.

TCNCGQEAVLLTVRKAGPNRGRQFFKCNGGSCNFFLWADS [E16A] and TCNCGQEAVLLTVRKGGPNRGRQFFKCNGGSCNFFLWADS [E16G] are within error of each other in abundance fitness: -0.185 ± 0.063 for the first, -0.266 ± 0.069 for the second.

TCNCGQEAVLLTVRKRGPNRGRQFFKCNGGSCNFFLWADS [E16R] and TCNCGQEAVLLTVRKTGPNRGRQFFKCNGGSCNFFLWADS [E16T] are within error of each other in abundance fitness: -0.165 ± 0.079 for the first, -0.13 ± 0.087 for the second.

TCNCGQEAVLLTVRKSGPNRGRQFFKCNGGSCNFFLWADS [E16S] and TCNCGQEAVLLTVRKVGPNRGRQFFKCNGGSCNFFLWADS [E16V] are within error of each other in abundance fitness: -0.344 ± 0.33 for the first, -0.5 ± 0.34 for the second.

TCNCGQEAVLLTVRKYGPNRGRQFFKCNGGSCNFFLWADS [E16Y] and TCNCGQEAVLLTVRKEGMNRGRQFFKCNGGSCNFFLWADS [P18M] are within error of each other in abundance fitness: -0.421 ± 0.17 for the first, -0.336 ± 0.072 for the second.

Compared with TCNCGQEAVLLTVRKEGHNRGRQFFKCNGGSCNFFLWADS [P18H], TCNCGQEAVLLTVRKEGANRGRQFFKCNGGSCNFFLWADS [P18A] is higher in abundance fitness: -0.353 ± 0.12 for the first, -0.058 ± 0.072 for the second.

TCNCGQEAVLLTVRKEGCNRGRQFFKCNGGSCNFFLWADS [P18C] and TCNCGQEAVLLTVRKEGWNRGRQFFKCNGGSCNFFLWADS [P18W] are within error of each other in abundance fitness: -0.482 ± 0.18 for the first, -0.716 ± 0.14 for the second.

TCNCGQEAVLLTVRKEGLNRGRQFFKCNGGSCNFFLWADS [P18L] and TCNCGQEAVLLTVRKEGRNRGRQFFKCNGGSCNFFLWADS [P18R] are within error of each other in abundance fitness: -0.352 ± 0.21 for the first, -0.252 ± 0.11 for the second.

Going from TCNCGQEAVLLTVRKEGVNRGRQFFKCNGGSCNFFLWADS [P18V] to TCNCGQEAVLLTVRKEGPARGRQFFKCNGGSCNFFLWADS [N19A], the abundance fitness falls from -0.149 ± 0.067 to -0.509 ± 0.097.

TCNCGQEAVLLWVRKEGPNRGRQFFKCNGGSCNFFLWADS [T12W] and TCNCGQEAVLLVVRKEGPNRGRQFFKCNGGSCNFFLWADS [T12V] are within error of each other in abundance fitness: -0.721 ± 0.2 for the first, -0.47 ± 0.083 for the second.

TCNCGQEAVLLYVRKEGPNRGRQFFKCNGGSCNFFLWADS [T12Y] and TCNCGQEAVLLRVRKEGPNRGRQFFKCNGGSCNFFLWADS [T12R] are within error of each other in abundance fitness: -0.356 ± 0.18 for the first, -0.437 ± 0.086 for the second.

TCNCGQEAVLLSVRKEGPNRGRQFFKCNGGSCNFFLWADS [T12S] and TCNCGQEAVLLTSRKEGPNRGRQFFKCNGGSCNFFLWADS [V13S] are within error of each other in abundance fitness: -0.475 ± 0.23 for the first, -0.234 ± 0.14 for the second.

Compared with TCNCGQEAVLLTVREEGPNRGRQFFKCNGGSCNFFLWADS [K15E], TCNCGQEAVLLTVRYEGPNRGRQFFKCNGGSCNFFLWADS [K15Y] is lower in abundance fitness: 0.105 ± 0.059 for the first, -0.299 ± 0.099 for the second.

Going from TCNCGQEAVLLTVRAEGPNRGRQFFKCNGGSCNFFLWADS [K15A] to TCNCGQEAVLLTVRREGPNRGRQFFKCNGGSCNFFLWADS [K15R], the abundance fitness rises from -0.282 ± 0.13 to 0.108 ± 0.15.

TCNCGQEAVLLTVRMEGPNRGRQFFKCNGGSCNFFLWADS [K15M] and TCNCGQEAVLLTVRWEGPNRGRQFFKCNGGSCNFFLWADS [K15W] are within error of each other in abundance fitness: -0.066 ± 0.18 for the first, -0.126 ± 0.19 for the second.

Compared with TCNCGQEAVLLTVRDEGPNRGRQFFKCNGGSCNFFLWADS [K15D], TCNCGQEAVLLTVRLEGPNRGRQFFKCNGGSCNFFLWADS [K15L] is lower in abundance fitness: 0.06 ± 0.09 for the first, -0.325 ± 0.059 for the second.

Going from TCNCGQEAVLLTVRCEGPNRGRQFFKCNGGSCNFFLWADS [K15C] to TCNCGQEAVLLTVRGEGPNRGRQFFKCNGGSCNFFLWADS [K15G], the abundance fitness rises from -0.342 ± 0.064 to 0.318 ± 0.21.

TCNCGQEAVLLTVRTEGPNRGRQFFKCNGGSCNFFLWADS [K15T] and TCNCGQEAVLLTVRNEGPNRGRQFFKCNGGSCNFFLWADS [K15N] are within error of each other in abundance fitness: 0.067 ± 0.045 for the first, 0.031 ± 0.11 for the second.

For TCNCGQEAVLLTVRFEGPNRGRQFFKCNGGSCNFFLWADS [K15F], the abundance fitness was -0.136 ± 0.12.

— the Human Domainome abundance scans (Beltran et al. 2025)
